Experimental data reported in PMC12748981.

Biological target: GST-NUPR1 (UniProt O60356)
Experiment: SPR
Settings: VHH

UniProt O60356, sequence (O60356 whole entry): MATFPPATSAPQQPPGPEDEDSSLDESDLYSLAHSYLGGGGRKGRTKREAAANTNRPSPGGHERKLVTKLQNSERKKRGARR

**Q.** Which Kd does the source give for “sdAb#07.81-3xFlag-cOdc1-Tat-6xHis (from UniProt P00860)” here?
**A.** 307 nM
